Source: patent publication US20180086849A1 (Hoffmann-La Roche, published 2018)

T1: human CEA (Carcinoembryonic antigen) on cells (human, UniProt P06731 35-685)
T1 sequence (looked up): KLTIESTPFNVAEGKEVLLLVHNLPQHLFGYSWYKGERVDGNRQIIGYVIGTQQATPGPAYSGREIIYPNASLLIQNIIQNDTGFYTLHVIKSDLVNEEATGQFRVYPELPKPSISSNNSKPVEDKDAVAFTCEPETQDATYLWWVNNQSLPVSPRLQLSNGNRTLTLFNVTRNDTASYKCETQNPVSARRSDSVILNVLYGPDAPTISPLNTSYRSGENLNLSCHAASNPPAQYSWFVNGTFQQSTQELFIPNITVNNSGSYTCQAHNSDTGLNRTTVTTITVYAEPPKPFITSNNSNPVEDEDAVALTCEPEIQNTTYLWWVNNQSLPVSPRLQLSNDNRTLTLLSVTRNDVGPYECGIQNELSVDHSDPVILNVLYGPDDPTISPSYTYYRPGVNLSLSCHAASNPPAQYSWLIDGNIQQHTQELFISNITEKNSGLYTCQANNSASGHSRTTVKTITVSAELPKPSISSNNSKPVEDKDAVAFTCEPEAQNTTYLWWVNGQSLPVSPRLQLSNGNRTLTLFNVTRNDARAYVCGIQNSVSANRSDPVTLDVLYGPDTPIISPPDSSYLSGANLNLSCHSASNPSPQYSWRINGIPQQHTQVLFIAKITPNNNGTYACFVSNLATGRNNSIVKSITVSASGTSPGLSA

B1: 2+1 IgG Crossfab, inverted; CL/CH1 exchange (CH1A1A/V9), anti-CEA/anti-huCD3 (bispecific antibody)
chain 1: QVQLVQSGAEVKKPGASVKVSCKASGYTFTEFGMNWVRQAPGQGLEWMGWINTKTGEATYVEEFKGRVTFTTDTSTSTAYMELRSLRSDDTAVYYCARWDFAYYVEAMDYWGQGTTVTVSSASTKGPSVFPLAPSSKSTSGGTAALGCLVKDYFPEPVTVSWNSGALTSGVHTFPAVLQSSGLYSLSSVVTVPSSSLGTQTYICNVNHKPSNTKVDKKVEPKSCDKTHTCPPCPAPEAAGGPSVFLFPPKPKDTLMISRTPEVTCVVVDVSHEDPEVKFNWYVDGVEVHNAKTKPREEQYNSTYRVVSVLTVLHQDWLNGKEYKCKVSNKALGAPIEKTISKAKGQPREPQVCTLPPSRDELTKNQVSLSCAVKGFYPSDIAVEWESNGQPENNYKTTPPVLDSDGSFFLVSKLTVDKSRWQQGNVFSCSVMHEALHNHYTQKSLSLSPGK
chain 2: DIQMTQSPSSLSASVGDRVTITCKASAAVGTYVAWYQQKPGKAPKLLIYSASYRKRGVPSRFSGSGSGTDFTLTISSLQPEDFATYYCHQYYTYPLFTFGQGTKLEIKRTVAAPSVFIFPPSDEQLKSGTASVVCLLNNFYPREAKVQWKVDNALQSGNSQESVTEQDSKDSTYSLSSTLTLSKADYEKHKVYACEVTHQGLSSPVTKSFNRGEC
chain 3: DIQMTQSPSSLSASVGDRVTITCRASQDIRNYLNWYQQKPGKAPKLLIYYTSRLESGVPSRFSGSGSGTDYTLTISSLQPEDFATYYCQQGNTLPWTFGQGTKVEIKSSASTKGPSVFPLAPSSKSTSGGTAALGCLVKDYFPEPVTVSWNSGALTSGVHTFPAVLQSSGLYSLSSVVTVPSSSLGTQTYICNVNHKPSNTKVDKKVEPKSC
chain 4: not shown
B2: 2+1 IgG Crossfab; VH/VL exchange (LC007/V9), anti-MCSP/anti-huCD3 (bispecific antibody)
chain 1: not shown
chain 2: DIVLTQSPSSLSASLGDRVTISCSASQGIRNYLNWYQQRPDGTVKLLIYYTSSLHSGVPSRFSGSGSGTDYSLTISNLEPEDIATYYCQQYSKLPWTFGGGTKLEIKRTVAAPSVFIFPPSDEQLKSGTASVVCLLNNFYPREAKVQWKVDNALQSGNSQESVTEQDSKDSTYSLSSTLTLSKADYEKHKVYACEVTHQGLSSPVTKSFNRGEC
chain 3: DIQMTQSPSSLSASVGDRVTITCRASQDIRNYLNWYQQKPGKAPKLLIYYTSRLESGVPSRFSGSGSGTDYTLTISSLQPEDFATYYCQQGNTLPWTFGQGTKVEIKSSASTKGPSVFPLAPSSKSTSGGTAALGCLVKDYFPEPVTVSWNSGALTSGVHTFPAVLQSSGLYSLSSVVTVPSSSLGTQTYICNVNHKPSNTKVDKKVEPKSCGGGGSGGGGSEVQLQESGPGLVKPSQSLSLTCSVTGYSITSGYYWNWIRQFPGNKLEWMGYITYDGSNNYNPSLKNRISITRDTSKNQFFLKLNSVTTEDTATYYCADFDYWGQGTTLTVSSASTKGPSVFPLAPSSKSTSGGTAALGCLVKDYFPEPVTVSWNSGALTSGVHTFPAVLQSSGLYSLSSVVTVPSSSLGTQTYICNVNHKPSNTKVDKKVEPKSCDKTHTCPPCPAPEAAGGPSVFLFPPKPKDTLMISRTPEVTCVVVDVSHEDPEVKFNWYVDGVEVHNAKTKPREEQYNSTYRVVSVLTVLHQDWLNGKEYKCKVSNKALGAPIEKTISKAKGQPREPQVCTLPPSRDELTKNQVSLSCAVKGFYPSDIAVEWESNGQPENNYKTTPPVLDSDGSFFLVSKLTVDKSRWQQGNVFSCSVMHEALHNHYTQKSLSLSPGK
chain 4: EVQLVESGGGLVQPGGSLRLSCAASGYSFTGYTMNWVRQAPGKGLEWVALINPYKGVSTYNQKFKDRFTISVDKSKNTAYLQMNSLRAEDTAVYYCARSGYYGDSDWYFDVWGQGTLVTVSSASVAAPSVFIFPPSDEQLKSGTASVVCLLNNFYPREAKVQWKVDNALQSGNSQESVTEQDSKDSTYSLSSTLTLSKADYEKHKVYACEVTHQGLSSPVTKSFNRGEC
B3: 1+1 IgG-Crossfab light chain fusion (CH1A1A/V9), anti-CEA/anti-huCD3 (bispecific antibody)
chain 1: B1 chain 3
chain 2: DIQMTQSPSSLSASVGDRVTITCKASAAVGTYVAWYQQKPGKAPKLLIYSASYRKRGVPSRFSGSGSGTDFTLTISSLQPEDFATYYCHQYYTYPLFTFGQGTKLEIKRTVAAPSVFIFPPSDEQLKSGTASVVCLLNNFYPREAKVQWKVDNALQSGNSQESVTEQDSKDSTYSLSSTLTLSKADYEKHKVYACEVTHQGLSSPVTKSFNRGECGGGGSGGGGSGGGGSGGGGSEVQLVESGGGLVQPGGSLRLSCAASGYSFTGYTMNWVRQAPGKGLEWVALINPYKGVSTYNQKFKDRFTISVDKSKNTAYLQMNSLRAEDTAVYYCARSGYYGDSDWYFDVWGQGTLVTVSSASVAAPSVFIFPPSDEQLKSGTASVVCLLNNFYPREAKVQWKVDNALQSGNSQESVTEQDSKDSTYSLSSTLTLSKADYEKHKVYACEVTHQGLSSPVTKSFNRGEC
chain 3: not shown
chain 4: DKTHTCPPCPAPEAAGGPSVFLFPPKPKDTLMISRTPEVTCVVVDVSHEDPEVKFNWYVDGVEVHNAKTKPREEQYNSTYRVVSVLTVLHQDWLNGKEYKCKVSNKALGAPIEKTISKAKGQPREPQVCTLPPSRDELTKNQVSLSCAVKGFYPSDIAVEWESNGQPENNYKTTPPVLDSDGSFFLVSKLTVDKSRWQQGNVFSCSVMHEALHNHYTQKSLSLSPGK
B4: 2+1 IgG Crossfab, inverted; CL/CH1 exchange (LC007/V9), anti-MCSP/anti-huCD3 (bispecific antibody)
chain 1: B2 chain 2
chain 2: EVQLQESGPGLVKPSQSLSLTCSVTGYSITSGYYWNWIRQFPGNKLEWMGYITYDGSNNYNPSLKNRISITRDTSKNQFFLKLNSVTTEDTATYYCADFDYWGQGTTLTVSSASTKGPSVFPLAPSSKSTSGGTAALGCLVKDYFPEPVTVSWNSGALTSGVHTFPAVLQSSGLYSLSSVVTVPSSSLGTQTYICNVNHKPSNTKVDKKVEPKSCDKTHTCPPCPAPEAAGGPSVFLFPPKPKDTLMISRTPEVTCVVVDVSHEDPEVKFNWYVDGVEVHNAKTKPREEQYNSTYRVVSVLTVLHQDWLNGKEYKCKVSNKALGAPIEKTISKAKGQPREPQVCTLPPSRDELTKNQVSLSCAVKGFYPSDIAVEWESNGQPENNYKTTPPVLDSDGSFFLVSKLTVDKSRWQQGNVFSCSVMHEALHNHYTQKSLSLSPGK
chain 3: B1 chain 3
chain 4: not shown
B5: 2+1 IgG Crossfab, inverted; VL/VH exchange (CH1A1A/V9), anti-CEA/anti-huCD3 (bispecific antibody)
chain 1: B2 chain 4
chain 2: not shown
chain 3: B1 chain 1
chain 4: B1 chain 2
B6: 2+1 IgG Crossfab; CL/CH1 exchange (LC007/anti-CD3), anti-MCSP/anti-huCD3 (bispecific antibody)
chain 1: B2 chain 2
chain 2: B4 chain 2
chain 3: QAVVTQESALTTSPGETVTLTCRSSTGAVTTSNYANWVQEKPDHLFTGLIGGTNKRAPGVPARFSGSLIGDKAALTITGAQTEDEAIYFCALWYSNLWVFGGGTKLTVLSSASTKGPSVFPLAPSSKSTSGGTAALGCLVKDYFPEPVTVSWNSGALTSGVHTFPAVLQSSGLYSLSSVVTVPSSSLGTQTYICNVNHKPSNTKVDKKVEPKSC
chain 4: not shown
B7: 2+1 IgG Crossfab, inverted; CL/CH1 exchange (LC007/anti-CD3), anti-MCSP/anti-huCD3 (bispecific antibody)
chain 1: B2 chain 2
chain 2: B4 chain 2
chain 3: B6 chain 3
chain 4: not shown

Assays:
Assay in all cases: cell-based or functional assay
[1] = biological target: T1, human CEA (Carcinoembryonic antigen) on …
[2] = biological target: T2, human MCSP (Melanoma-associated Chondroitin Sulfate Proteoglycan) on cells (human, UniProt Q6UVK1 30-2322)
[3] = biological target: T2, human MCSP (Melanoma-associated …); remark: listed apart in the source

T2 sequence (Q6UVK1 30-2322): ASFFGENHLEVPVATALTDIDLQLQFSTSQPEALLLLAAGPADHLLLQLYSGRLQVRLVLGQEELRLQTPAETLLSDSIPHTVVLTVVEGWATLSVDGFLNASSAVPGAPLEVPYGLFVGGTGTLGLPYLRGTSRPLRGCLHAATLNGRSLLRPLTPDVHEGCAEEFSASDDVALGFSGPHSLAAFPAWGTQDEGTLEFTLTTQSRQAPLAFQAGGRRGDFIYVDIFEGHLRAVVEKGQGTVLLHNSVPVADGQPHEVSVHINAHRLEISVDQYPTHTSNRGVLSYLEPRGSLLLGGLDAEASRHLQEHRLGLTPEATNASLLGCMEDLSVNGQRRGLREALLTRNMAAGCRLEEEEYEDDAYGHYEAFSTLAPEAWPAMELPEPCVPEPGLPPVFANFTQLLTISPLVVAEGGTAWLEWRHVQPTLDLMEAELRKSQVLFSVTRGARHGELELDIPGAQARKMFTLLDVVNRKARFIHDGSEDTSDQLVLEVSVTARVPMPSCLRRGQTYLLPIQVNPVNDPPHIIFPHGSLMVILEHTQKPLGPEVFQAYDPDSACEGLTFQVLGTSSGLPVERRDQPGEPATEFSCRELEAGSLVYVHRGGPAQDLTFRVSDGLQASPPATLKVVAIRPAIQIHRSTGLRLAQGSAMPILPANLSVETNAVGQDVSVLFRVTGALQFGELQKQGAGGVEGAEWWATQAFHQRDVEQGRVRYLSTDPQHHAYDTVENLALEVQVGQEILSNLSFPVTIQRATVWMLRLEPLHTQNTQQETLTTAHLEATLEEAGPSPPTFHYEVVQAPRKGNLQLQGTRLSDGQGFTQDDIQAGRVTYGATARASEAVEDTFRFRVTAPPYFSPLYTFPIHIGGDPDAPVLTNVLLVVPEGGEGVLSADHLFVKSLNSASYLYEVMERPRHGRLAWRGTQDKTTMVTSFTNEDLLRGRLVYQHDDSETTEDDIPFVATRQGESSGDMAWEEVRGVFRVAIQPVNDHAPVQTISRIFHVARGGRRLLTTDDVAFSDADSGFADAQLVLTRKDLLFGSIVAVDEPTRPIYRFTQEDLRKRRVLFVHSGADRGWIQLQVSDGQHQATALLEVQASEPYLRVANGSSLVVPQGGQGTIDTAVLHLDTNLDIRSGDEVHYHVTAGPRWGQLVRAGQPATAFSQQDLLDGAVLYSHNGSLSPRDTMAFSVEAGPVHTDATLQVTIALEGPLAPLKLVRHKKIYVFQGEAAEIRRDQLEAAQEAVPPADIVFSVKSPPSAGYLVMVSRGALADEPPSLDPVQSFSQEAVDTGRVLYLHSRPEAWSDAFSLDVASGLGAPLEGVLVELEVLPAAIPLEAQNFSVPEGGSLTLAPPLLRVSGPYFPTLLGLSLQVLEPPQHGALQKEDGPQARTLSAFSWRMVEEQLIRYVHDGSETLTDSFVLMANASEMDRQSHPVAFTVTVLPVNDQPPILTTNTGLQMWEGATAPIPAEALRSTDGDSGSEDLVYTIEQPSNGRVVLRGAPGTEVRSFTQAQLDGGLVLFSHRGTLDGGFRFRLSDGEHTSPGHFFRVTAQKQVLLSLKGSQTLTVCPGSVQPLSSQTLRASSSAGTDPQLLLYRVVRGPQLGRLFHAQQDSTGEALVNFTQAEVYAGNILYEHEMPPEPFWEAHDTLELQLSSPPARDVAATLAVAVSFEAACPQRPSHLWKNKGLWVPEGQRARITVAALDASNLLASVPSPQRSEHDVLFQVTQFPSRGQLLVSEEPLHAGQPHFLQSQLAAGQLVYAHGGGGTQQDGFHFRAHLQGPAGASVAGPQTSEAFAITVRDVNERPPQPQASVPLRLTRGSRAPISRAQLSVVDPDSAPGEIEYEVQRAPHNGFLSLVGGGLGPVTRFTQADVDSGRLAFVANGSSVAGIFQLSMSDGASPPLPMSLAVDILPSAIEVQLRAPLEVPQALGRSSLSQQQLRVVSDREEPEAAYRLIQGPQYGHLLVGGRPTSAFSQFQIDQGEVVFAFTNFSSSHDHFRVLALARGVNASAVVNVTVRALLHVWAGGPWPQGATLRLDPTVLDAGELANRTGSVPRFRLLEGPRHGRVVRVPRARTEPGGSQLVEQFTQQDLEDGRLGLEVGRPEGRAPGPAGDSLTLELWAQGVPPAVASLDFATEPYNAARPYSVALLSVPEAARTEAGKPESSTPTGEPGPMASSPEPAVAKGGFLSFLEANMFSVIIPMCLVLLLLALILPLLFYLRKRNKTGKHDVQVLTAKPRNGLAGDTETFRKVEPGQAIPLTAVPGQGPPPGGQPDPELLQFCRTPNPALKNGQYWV

Binder	EC50 of T cell-mediated killing (LDH release) of LS-174T cells, human PBMCs, 28 h [1] [nM]	EC50 of T cell-mediated killing (LDH release) of MKN-45 cells, human PBMCs, 28 h [1] [nM]	EC50 [pM] of T cell-mediated killing (LDH release) of MV-3 cells, human PBMCs, about 24 h [3] [pM]	EC50 [pM] of T cell-mediated killing (LDH release) of WM266-4 cells, human PBMCs, about 24 h [3] [pM]	further results
B1	0.673	0.115			
B2			10	12.4	EC50 of T cell-mediated killing (LDH release) of MV-3 cells, human PBMCs, 21 h [2]: 0.0092 nM; EC50 of T cell-mediated killing (LDH release) of WM266-4 cells, human PBMCs, 21 h [2]: 0.0331 nM
B3	1.56	0.213			EC50 of T cell-mediated killing (LDH release) of MC38-huCEA cells, human PBMCs, 24 h [1]: ~3.2 nM
B4			4.1	3.7	
B5	0.955	0.243			
B6			11	11.3	
B7			3	7.1	
